# According to patent US9073982B2, “Targets for regulation of angiogenesis” (The University of North Carolina at Chapel Hill, priority 2008, dated 2015):
# “Also recorded” adds a separate entry of the source.
# Assays:
# [1] = tested on: chick chorioallantoic membrane; test: Chick chorioallantoic membrane (CAM) assay; format: in vivo, chicken; conditions: 100 ng per disk, evaluated day 3 after disk placement
# Experimental: On day 4, the eggs were cracked into sterile Petri dishes and incubated at 99° F. in 3% CO2, 65% humidity. For application of drug onto the CAM, Whatman grade 1 filter paper was cut into circles with a 6 mm diameter paper punch and autoclaved. To decrease inflammatory effects of the disk, the discs were soaked in 1 ml of 3.0 mg/ml cortisone acetate in absolute ETOH and air dried for 60 min in a laminar flow hood. On day 8, 5 disks per egg were placed on the outer third of the CAM, 2-3 mm from a vessel. Control PBS 7 μl was added to the discs for the control CAMs, and SFRP2 100 ng/7 μl PBS was added to the disks for the treated CAMs (n=5 control disks and 5 SFRP2-treated disks). The CAMs were evaluated under a stereomicroscope on day 3 after disk placement. Pictures were taken with a Wild M-4 70 Macrosystem, and angiogenesis was quantified using Metamorph Software with an angiogenesis module.
# Fertilized chickens eggs (NC State University Chicken Research Faint) were incubated at 100.4° F. in an egg turner (Model#1588 Genesis Hova-Bator, GQF Mfg. Co., Inc.) for 3 days. […] CAMs were evaluated under a stereomicroscope on day 3 after disk placement. Pictures were taken with a Wild M-4 70 Macrosystem and angiogenesis was quantified using Metamorph Software with an angiogenesis module.
# [2] = tested on: mouse endothelial cells (MEC); test: Endothelial cell tube formation assay, MEC cells; format: cell-based; conditions: SFRP2 concentration range, 8 hours
# Experimental: The tube formation properties of SFRP2 on mouse endothelial cells (MEC) cells were evaluated using an endothelial cell tube formation assay. ECMATRIX (Chemicon) was thawed, diluted and solidified in a 96 well plate according to the manufacturer's instructions. 1×10^4 cells/well in 150 μl of DMEM (celigro) with 10% FBS (HyClone) and a concentration range (7-7000 pM) of SFRP2 (US Biologicals) were seeded onto the matrix and returned to 37° C., 5% CO2 for 8 hours. Images were acquired using the Nikon Eclipse TS100 microscope at 4× magnification with a Nikon CoolPix 995 digital camera. Results were quantified by counting the number of branch points.
# To evaluate whether tacrolimus inhibits SFRP2 induced tube formation, MEC cells were treated as above with SFRP2 7 nM with and without tacrolimus 100 uM for 8 hours and branch points were determined as described above. To evaluate whether tacrolimus reversed established tubes, cells were incubated with SFRP2 7 nM for 8 hours and then BSA or tacrolimus 100 μM was added to SFRP2 treated cells for an additional 4 hours, and then the number of branch points were counted. […] Tacrolimus was not cytotoxic to MEC cells, as only 5% of tacrolimus-treated cells took up trypan blue dye (data not shown).
# The tube formation properties of SFRP2 on MEC cells were evaluated using an endothelial cell tube formation assay. ECMATRIX (Chemicon) was thawed, diluted and solidified in a 96 well plate according to the manufactures instructions. 1×10^4 cells/well in 150 μl of DMEM (cellgro) with 10% FBS (HyClone) and a concentration range (3-3000 pM) of SFRP2 (US Biologicals) were seeded onto the matrix and returned to 37° C., 5% CO2 for 8 hours. Images were acquired using the Nikon Eclipse TS100 microscope at 4× magnification with a Nikon CoolPix 995 digital camera. Results were quantified by counting the number of branch point. To evaluate whether tacrolimus inhibits SFRP2 induced tube formation, MEC cells were treated as above with SFRP2 30 nM with and without tacrolimus (1 μM-100 uM) for 8 hours and branch points were determined as described above. To evaluate whether inhibitors of SFRP2-mediated angiogenesis would inhibit the growth of SVR tumor cells, SVR cells were treated with tacrolimus (1 μM-100 μM) or with a rabbit polyclonal antibody to SFRP-2 (H-140) (Santa Cruz Biotechnology, Santa Cruz, Calif., catalogue 4 sc-13940) in the tube formation assay.
# C57BL/6 mice = test: Mouse MATRIGEL plug angiogenesis assay; format: in vivo
# Experimental: The ability of mouse recombinant SFRP2 would stimulate angiogenesis in a mouse MATRIGEL plug angiogenesis assay was evaluated. Female C57BL/6 mice (8 weeks old) were injected s.c. with 0.5 ml of growth factor reduced basement membrane matrix (MATRIGEL) containing either mouse recombinant SFRP2 (800 ng/ml) with 30 U/ml heparin or PBS with 30 U/ml heparin for negative control. Seven days later the mice were sacrificed and the MATRIGEL plugs removed and evaluated for angiogenesis by hemoglobin concentration with the Drabkin's reagent.
# β-catenin = test: Western blot for nuclear and cytoplasmic β-catenin in endothelial cells; format: cell-based, mouse; conditions: SFRP2 700 pM
# Experimental: SFRP2 has been described as both a Wnt antagonist and agonist, but its effects on Wnt signaling in endothelial cells have not been elucidated. To determine if SFRP2 mediates canonical Wnt signaling in endothelial cells, cytoplasmic and nuclear β-catenin levels were measured in SFRP2-treated endothelial cells. Mouse endothelial cells were plated in 12-well plates and allowed to attach overnight. The next day, the media was changed and added to the wells with and without SFRP2 (700 pM). Cells were incubated for 16 hours, and the nuclear and cytoplasmic proteins were extracted by using NE-PER™ nuclear and cytoplasmic extraction reagent from PIERCE (Pierce Biotechnology) as described in the manufacturer's manual. Western blot analysis was performed using standard methods, with primary antibody to the dephosphorylated (active) β-catenin antibody (Santa Cruz, Clone BDI480, catalog # sc-59893).
# To evaluate the role of the non-canonical Wnt/Ca^++ pathway in SFRP2 induced angiogenesis, nuclear dephosphorylated NFATc3 protein levels were compared in control and SFRP2-treated endothelial cells. MEC cells were plated in 12-well plates and allowed to attach overnight. The next day, the media was changed and added to the wells with and without SFRP2 (700 pM). […]
molecule,measurement,setting,value
"SFRP2: mouse recombinant SFRP2 (US Biologicals), secreted frizzled-related protein 2 (protein) LFLFGQPDFSYKRSNCKPIPANLQLCHGIEYQNMRLPNLLGHETMKEVLEQAGAWIPLVMKQCHPDTKKFLCSLFAPVCLDDLDETIQPCHSLCVQVKDRCAPVMSAFGFPWPDMLECDRFPQDNDLCIPLASSDHLLPATEEAPKVCEACKTKNEDDNDIMETLCKNDFALKIKVKEITYINRDTKIILETKSKTIYKLNGVSERDLKKSVLWLKDSLQCTCEEMNDINAPYLVMGQKQGGELVITSVKRWQKGQREFKRISRSIRKLQC","angiogenesis on the CAM (branch points, segments, tube area, tube length)",[1],induced angiogenesis on the CAM; also recorded: induces angiogenesis on the chorioallantoic membrane
same,endothelial tube formation (branch points),[2],induced by SFRP2 in a concentration-dependent manner; also recorded: induces endothelial tube formation at 8 hours in a concentration-dependent manner
same,"hemoglobin content of plugs, increase compared with the vehicle control","C57BL/6 mice; SFRP2 800 ng/ml with heparin, s.c., seven days",3.3 fold
same,angiogenesis in the mouse MATRIGEL plug assay,"C57BL/6 mice; mouse, in vivo",induces angiogenesis
same,nuclear (and cytoplasmic) β-catenin level,β-catenin,no change in nuclear β-catenin; also recorded: no change in cytoplasmic or nuclear β-catenin levels
